Non-standard residues stand in square brackets, D forms with d. No end group written: not given here. pS = N[C@@H](COP(=O)(O)O)C(=O)O
Biological target: F25Y
Experiment: binding to CTD phosphopeptide

B1: CTD Repeat Tyr-P.Ser-Pro-Thr-P.Ser-Pro-Ser (peptide)
peptide: Y[pS]PT[pS]PS
modifications: also: tetramethylrhodamine label on an amine, place not given here
Kd: 12 µM

Source: US7127357 (dated 2006)
